Positions count from the first letter of the chain named. Names may count otherwise. Blank lines part the entries; values can stand above or below the binder they belong to.
Tests used:
[1] = target: T1, rhesus ILT3-His tagged recombinant protein (rhesus monkey (Macaca mulatta)); test: SPR (Biacore), rhesus ILT3-His
T1 construct: also called ILT3_MM; not shown: His tag
T1 chain: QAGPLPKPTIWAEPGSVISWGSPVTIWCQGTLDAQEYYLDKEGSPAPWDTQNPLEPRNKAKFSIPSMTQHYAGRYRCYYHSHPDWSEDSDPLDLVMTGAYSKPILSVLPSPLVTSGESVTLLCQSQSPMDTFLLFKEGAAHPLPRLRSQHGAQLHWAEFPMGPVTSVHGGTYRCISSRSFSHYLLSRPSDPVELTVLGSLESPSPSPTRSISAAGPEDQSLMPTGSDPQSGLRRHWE
Description: (§1) The binding kinetics and affinities of anti-human ILT3 clones for human or rhesus ILT3-His tagged recombinant protein were measured by surface plasmon resonance using a Biacore™ T200 system (GE Healthcare, Piscataway, NJ). HBS-EP+ buffer (BR-1006-69) was used as the running buffer. Anti-human Fc antibody (Human Fc Capture Kit, BR100839, GE Healthcare) was immobilized via amine coupling chemistry in all four flow cells on a Series S CM5 sensor chip (BR100530 or 29149603, GE Healthcare) following manufacturer instructions. Flow cell 1 was used as reference for background subtraction and was not used for capture. […] Following each injection cycle, all four flow cells were regenerated using 30 second injection of 3M MgCl₂ solution at a flow rate of 10 μL/minute. Reference subtracted sensorgrams were fit to a 1:1 Langmuir Binding Model in the Biacore™ T200 Evaluation Software (Version 2.0) to determine the association (ka) and dissociation (kd) rate constants and the equilibrium dissociation constant KD (=kd/ka).

[2] = target: T2, Human ILT3 (LILRB4) extracellular domain with C-terminal His Tag (human, UniProt Q8NHJ6 22-259); test: SPR (Biacore), human ILT3-His
T2 construct: the claims count residues 1-238 as the extracellular domain; also called human ILT3-His; ILT3_H
Description: as §1

B1: Humanized anti-ILT3 mAb (52B8 VH1/VL1) IgG4 S228P/Kappa (antibody, V domains shown)
VH: EVQLVESGGGLVQPGGSLRLSCAASGFTFSNYGMSWVRQAPGKGLEWVATISGGGDYTNYPDSMRGRFTISRDNAKNSLYLQMNSLRAEDTAVYYCGRRLWFRSLYYAMDYWGQGTLVTVSS
VL: DIVLTQSPDSLAVSLGERATINCRASEKVDSFGNSFMHWYQQKPGQPPKLLIYLTSNLDSGVPDRFSGSGSRTDFTLTISSLQAEDVAVYYCQQNNEDPYTFGQGTKLEIKR
notes: also called mAb 1
Kd [1]: 25 nM
Kd [2]: 0.99 nM

B2: Humanized anti-ILT3 mAb (52B8 VH1/VL3) IgG4 S228P/Kappa (antibody, V domains shown)
VH: B1 VH
VL: EIVLTQSPATLSLSPGERATLSCRASEKVDSFGNSFMHWYQQKPGQAPRLLIYLTSNLDSGVPARFSGSGSRTDFTLTISSLEPEDFAVYYCQQNNEDPYTFGQGTKLEIKR
notes: also called mAb 3
Kd [1]: 26 nM
Kd [2]: 1.1 nM

B3: Humanized anti-ILT3 mAb (52B8 VH1 M64L/VL1) IgG4 S228P/Kappa (antibody, V domains shown)
VH: B1 VH with M64L
VL: B1 VL
notes: also called mAb 17
Kd [1]: 24 nM
Kd [2]: 0.87 nM

B4: Humanized anti-ILT3 mAb (52B8 VH1 M64V/VL3) IgG4 S228P/Kappa (antibody, V domains shown)
VH: B1 VH with M64V
VL: B2 VL
notes: also called mAb 11
Kd [1]: 27 nM
Kd [2]: 1.1 nM

B5: Humanized anti-ILT3 mAb (52B8 VH1 M64L/VL4) IgG4 S228P/Kappa (antibody, V domains shown)
VH: B1 VH with M64L
VL: B2 VL with V62I, R72G
notes: also called mAb 20
Kd [1]: 29 nM
Kd [2]: 1.3 nM

B6: Humanized anti-ILT3 mAb (52B8 VH1 M64V W101Y/VL5 N34Q) IgG4 S228P/Kappa (antibody, V domains shown)
VH: B1 VH with M64V, W101Y
VL: DIQLTQSPSSLSASVGDRVTITCRASEKVDSFGQSFMHWYQQKPGKAPKLLIYLTSNLDSGVPSRFSGSGSGTDFTLTISSLQPEDFATYYCQQNNEDPYTFGQGTKLEIKR
notes: also called mAb 57
binding result [1]: no binding (tested: ILT3-His injected up to 20 nM)
binding result [2]: no binding (tested: ILT3-His injected up to 20 nM)

B7: Humanized anti-ILT3 mAb (52B8 VH1 M64V/VL1) IgG4 S228P/Kappa (antibody, V domains shown)
VH: B1 VH with M64V
VL: B1 VL
notes: also called mAb 9
Kd [1]: 26 nM
Kd [2]: 0.94 nM

B9: Humanized anti-ILT3 mAb (52B8 VH1 M64V W101F/VL5 S35N) IgG4 S228P/Kappa (antibody, V domains shown)
VH: B1 VH with M64V, W101F
VL: B6 VL with Q34N, S35N
binding result [1]: no binding (tested: ILT3-His injected up to 20 nM)
binding result [2]: no binding (tested: ILT3-His injected up to 20 nM)

B12: Humanized anti-ILT3 mAb (52B8 VH1 M64V/VL4) IgG4 S228P/Kappa (antibody, V domains shown)
VH: B1 VH with M64V
VL: B2 VL with V62I, R72G
notes: also called mAb 12
Kd [1]: 29 nM
Kd [2]: 1.5 nM

B13: Humanized anti-ILT3 mAb (52B8 VH1 M64V W101Q/VL5 S35N) IgG4 S228P/Kappa (antibody, V domains shown)
VH: B1 VH with M64V, W101Q
VL: B6 VL with Q34N, S35N
notes: also called mAb 60
binding result [1]: no binding (tested: ILT3-His injected up to 20 nM)
binding result [2]: no binding (tested: ILT3-His injected up to 20 nM)

B15: Humanized anti-ILT3 mAb (52B8 VH1 M64V W101Y/VL5 S35A) IgG4 S228P/Kappa (antibody, V domains shown)
VH: B1 VH with M64V, W101Y
VL: B6 VL with Q34N, S35A
notes: also called mAb 55
binding result [1]: no binding (tested: ILT3-His injected up to 20 nM)
binding result [2]: no binding (tested: ILT3-His injected up to 20 nM)

B17: Humanized anti-ILT3 mAb (52B8 VH1 M64V W101Q/VL5 S35A) IgG4 S228P/Kappa (antibody, V domains shown)
VH: B1 VH with M64V, W101Q
VL: B6 VL with Q34N, S35A
notes: also called mAb 59
binding result [1]: no binding (tested: ILT3-His injected up to 20 nM)
binding result [2]: no binding (tested: ILT3-His injected up to 20 nM)

B19: Humanized anti-ILT3 mAb (52B8 VH1 M64V W101Y/VL5 S35N) IgG4 S228P/Kappa (antibody, V domains shown)
VH: B1 VH with M64V, W101Y
VL: B6 VL with Q34N, S35N
notes: also called mAb 56
binding result [1]: no binding (tested: ILT3-His injected up to 20 nM)
binding result [2]: no binding (tested: ILT3-His injected up to 20 nM)

B25: Humanized anti-ILT3 mAb (52B8 VH1 M64V W101F/VL5 S35A) IgG4 S228P/Kappa (antibody, V domains shown)
VH: B1 VH with M64V, W101F
VL: B6 VL with Q34N, S35A
notes: also called mAb 51
binding result [1]: no binding (tested: ILT3-His injected up to 20 nM)
binding result [2]: no binding (tested: ILT3-His injected up to 20 nM)

B28: Humanized anti-ILT3 mAb (52B8 VH1 M64V W101Y/VL5 N34D) IgG4 S228P/Kappa (antibody, V domains shown)
VH: B1 VH with M64V, W101Y
VL: B6 VL with Q34D
notes: also called mAb 58
binding result [1]: no binding (tested: ILT3-His injected up to 20 nM)
binding result [2]: no binding (tested: ILT3-His injected up to 20 nM)

B29: Humanized anti-ILT3 mAb (52B8 VH1 M64V W101Q/VL5 N34D) IgG4 S228P/Kappa (antibody, V domains shown)
VH: B1 VH with M64V, W101Q
VL: B6 VL with Q34D
notes: also called mAb 62
binding result [1]: no binding (tested: ILT3-His injected up to 20 nM)
binding result [2]: no binding (tested: ILT3-His injected up to 20 nM)

B30: Humanized anti-ILT3 mAb (52B8 VH1 M64V W101F/VL5 N34D) IgG4 S228P/Kappa (antibody, V domains shown)
VH: B1 VH with M64V, W101F
VL: B6 VL with Q34D
notes: also called mAb 54
binding result [1]: no binding (tested: ILT3-His injected up to 20 nM)
binding result [2]: no binding (tested: ILT3-His injected up to 20 nM)

B31: Humanized anti-ILT3 mAb (52B8 VH1 M64L/VL3) IgG4 S228P/Kappa (antibody, V domains shown)
VH: B1 VH with M64L
VL: B2 VL
notes: also called mAb 19
Kd [1]: 26 nM
Kd [2]: 0.99 nM

B32: Humanized anti-ILT3 mAb (52B8 VH1 M64V W101Q/VL5 N34Q) IgG4 S228P/Kappa (antibody, V domains shown)
VH: B1 VH with M64V, W101Q
VL: B6 VL
notes: also called mAb 61
binding result [1]: no binding (tested: ILT3-His injected up to 20 nM)
binding result [2]: no binding (tested: ILT3-His injected up to 20 nM)

More lines, main results first:

Kd [1]: 29 nM
Kd [2]: 1.4 nM
B8: Humanized anti-ILT3 mAb (52B8 VH2 M64V/VL4) IgG4 S228P/Kappa (antibody, V domains shown)
VH: B1 VH with M64V, R87K
VL: B2 VL with V62I, R72G
notes: also called mAb 16

Kd [1]: 24 nM
Kd [2]: 0.96 nM
B10: Humanized anti-ILT3 mAb (52B8 VH2 M64L/VL3) IgG4 S228P/Kappa (antibody, V domains shown)
VH: B1 VH with M64L, R87K
VL: B2 VL
notes: also called mAb 23

Kd [1]: 115 nM
Kd [2]: 3.8 nM
B11: Humanized anti-ILT3 mAb (52B8 VH1 M64V/VL5 N34D) IgG4 S228P/Kappa (antibody, V domains shown)
VH: B1 VH with M64V
VL: B6 VL with Q34D
notes: also called mAb 47

Kd [1]: 27 nM
Kd [2]: 1.3 nM
B14: Humanized anti-ILT3 mAb (52B8 VH2/VL4) IgG4 S228P/Kappa (antibody, V domains shown)
VH: B1 VH with R87K
VL: B2 VL with V62I, R72G
notes: also called mAb 8

Kd [1]: 25 nM
Kd [2]: 0.94 nM
B16: Humanized anti-ILT3 mAb (52B8 VH2/VL1) IgG4 S228P/Kappa (antibody, V domains shown)
VH: B1 VH with R87K
VL: B1 VL

Kd [1]: 27 nM
Kd [2]: 1.2 nM
B18: Humanized anti-ILT3 mAb (52B8 VH2 M64L/VL4) IgG4 S228P/Kappa (antibody, V domains shown)
VH: B1 VH with M64L, R87K
VL: B2 VL with V62I, R72G
notes: also called mAb 24

Kd [1]: 29 nM
Kd [2]: 1.4 nM
B20: Humanized anti-ILT3 mAb (52B8 VH1/VL4) IgG4 S228P/Kappa (antibody, V domains shown)
VH: B1 VH
VL: B2 VL with V62I, R72G
notes: also called mAb 4

Kd [1]: 26 nM
Kd [2]: 1 nM
B21: Humanized anti-ILT3 mAb (52B8 VH2 M64V/VL3) IgG4 S228P/Kappa (antibody, V domains shown)
VH: B1 VH with M64V, R87K
VL: B2 VL
notes: also called mAb 15

Kd [1]: 25 nM
Kd [2]: 0.94 nM
B22: Humanized anti-ILT3 mAb (52B8 VH2 M64V/VL1) IgG4 S228P/Kappa (antibody, V domains shown)
VH: B1 VH with M64V, R87K
VL: B1 VL
notes: also called mAb 13

Kd [2]: 4.7 nM
B23: Humanized anti-ILT3 mAb (52B8 VH1 M64V/VL5 S35N) IgG4 S228P/Kappa (antibody, V domains shown)
VH: B1 VH with M64V
VL: B6 VL with Q34N, S35N
notes: also called mAb 45
binding result [1]: no binding (tested: ILT3-His injected up to 20 nM)

Kd [2]: 35 nM
B24: Humanized anti-ILT3 mAb (52B8 VH1 M64V W101F/VL5 N34Q) IgG4 S228P/Kappa (antibody, V domains shown)
VH: B1 VH with M64V, W101F
VL: B6 VL
notes: also called mAb 53
binding result [1]: no binding (tested: ILT3-His injected up to 20 nM)

Kd [1]: 26 nM
Kd [2]: 0.96 nM
B26: Humanized anti-ILT3 mAb (52B8 VH2/VL3) IgG4 S228P/Kappa (antibody, V domains shown)
VH: B1 VH with R87K
VL: B2 VL
notes: also called mAb 7

Kd [1]: 34 nM
Kd [2]: 2.6 nM
B27: Humanized anti-ILT3 mAb (52B8 VH1 M64V/VL5 S35A) IgG4 S228P/Kappa (antibody, V domains shown)
VH: B1 VH with M64V
VL: B6 VL with Q34N, S35A
notes: also called mAb 44
